Columns and labels:
[1] = target: fused glucose-6-phosphate dehydrogenase::6-phosphogluconolactonase (G6PD::6PGL) protein from Giardia lamblia (Giardia lamblia); test: SEC; Shodex Protein KW-802.5 column, 50 mM Tris buffer pH 8.75, protein incubated 2 h at 37 °C with either 0.45 M or no Gdn-HCl, flow 0.5 mL/min, calibrated with Bio-Rad standards
[2] = target: fused glucose-6-phosphate dehydrogenase::6-phosphogluconolactonase (G6PD::6PGL) protein from Giardia lamblia (Giardia lamblia); test: SEC; Sephacryl 100 (16/60) gel filtration column, 50 mM Tris buffer pH 7.85, flow 0.5 mL/min, calibrated with Bio-Rad gel filtration standards; oligomeric state from the elution volume
[3] = target: fused glucose-6-phosphate dehydrogenase::6-phosphogluconolactonase (G6PD::6PGL) protein from Giardia lamblia (Giardia lamblia)

**Q.** What does the source list for “fused glucose-6-phosphate dehydrogenase::6-phosphogluconolactonase (G6PD::6PGL) protein from Giardia lamblia (enzyme)”?
**A.** stoichiometry N [1]: 2; stoichiometry N [2]: 2; residual G6PD activity after incubation of the enzyme at 0 to 100 µg/mL for 2 h at 37 °C (stability to dilution) [3]: 100%
